Read-outs that look alike come from different tables or passages of the source. Square brackets hold non-standard residues; d marks the D form. Ends that are not written are not given here.
Assays:
[1] = CD-monitored thermal denaturation (two-state unfolding fit); assay type: physicochemical; conditions: for ΔCp / Tm / ΔHm: 20 μM peptide in 20 mM potassium phosphate; for ΔCp / Tm / ΔSm / ΔHm: pH 7.0; for Tm: CD at 229 nm; for ΔSm: calculated from the fit parameters (ΔHm/Tm), 20 μM peptide, 20 mM potassium phosphate; for ΔHm: ΔH at Tm
Procedure: Spectra were acquired with an Aviv Instruments, Inc. Model 202 spectrophotometer. Peptide concentrations were determined spectrophotometrically as described in Gill & von Hippel (1989) Anal. Biochem. 182:319–326. Melting curves were acquired at 229 nm with […] equilibration at each temperature and an averaging time of 15 s. Thermal denaturation was reversible, as judged by recovery of CD signal (≧95%) upon cooling. In addition, reverse melting curves were acquired for trpzips 1 and 4. Reverse and forward curves were identical in shape, with≦0.5 K shift in Tm. As a model for the unfolded state of the peptides, the melting curve (linear) of an equimolar mixture of the trpzip1 half peptides SWTWEG[SEQ ID NO: 14] and NKWTWK [SEQ ID NO: 15] was measured. Data for the trpzip peptides were then fit to a two-state unfolding equilibrium as described in Minor & Kim (1994) Nature 367:660–663, fixing the unfolded baseline. Folded baselines, Tm, ΔHm (ΔH at Tm), and ΔCp were allowed to vary. For trpzips 5 and 6, the unfolded baseline could be fit directly to the experimental data. ΔSm was calculated from the fit parameters (ΔHm/Tm). Errors in Table 2 were generated by the fitting algorithm (Kaleidagraph, Synergy Software) and were given to indicate the quality of the fits to the particular experimental data set. However, when fitting different data sets, ΔHm and ΔCp values varied by ˜10%, as is typical in thermal denaturation experiments. Becktel & Scheilman (1987) Biopolymers 26:1859–1877.
Fitting the trpzip denaturation curves in this manner required large shifts in Tm (˜5–10 K higher than the minimum in a derivative plot) and generated fits of lower quality. […] From our data on trpzips 4, 5 and 6, we can estimate ΔCp ˜200 cal mol^−1 K^−1 for the gb1 peptide, which is sufficient to explain the discrepancy between our population estimate for the gb1 hairpin and those previously reported (Munoz et al. (1997), supra; Honda et al. (2000), supra). Recently, a non-zero ΔCp (˜100 cal mol^−1 K^−1) was reported for the unfolding of a 12-residue hairpin related to gb1. Espinosa & Gellman (2000) Angew. Chem. Int. Ed. 39:2330–2333.

[2] = literature estimates, in water, gb1 at 278 K by NMR, cited from earlier work
[3] = Analytical (equilibrium) ultracentrifugation; assay type: physicochemical; conditions: for σobs/σcalc (reduced apparent molecular weight, observed/calculated): non-ideal single-species model, 20 mM potassium phosphate, 150 mM KCl, pH 7.1, 277 K
Procedure: Samples (in 20 mM potassium phosphate, 150 mM KCl, pH 7.1; 277 K) were analyzed in a Beckman XL-A ultracentrifuge at rotor speeds of 40 and 55 krpm. Peptide concentration was monitored by absorbance at or near 290 nm. Data for both speeds and two initial peptide concentrations (60 and 200 μM, […] data sets total per peptide) were fit simultaneously to a nonideal single species model using the program NONLIN. Johnson et al. (1981) Biophys. J. 36: 575–588.
Allowing nonideality improved the fit for the 200 μM samples while only slightly changing the reduced apparent molecular weight σ (˜+6%). For all 3 peptides, data from 60 μM samples fit an ideal model (FIG. 2) with random residuals. Expected σ values were determined from partial specific volumes based on residue composition, calculated buffer density, and monomer formula weights.

Row | Substance | ΔCp [1] | Tm [1] | unfolding free energy ([1]; 298 K) | ΔSm [1] | ΔHm [1] | ΔCp, estimated from data on trpzips 4, 5 and 6 [1] | ΔGunf, estimated assuming additive stabilization from the two pairs ([1]; 298 K, estimated from trpzips 4, 5 and 6) | Hairpin population [2] | Hairpin population ([2]; listed as GB1 hairpin) | Tm ([1]; listed as Trpzip1) | Dependence of thermal denaturation on peptide concentration ([1]; trpzip1 20–150 μM, trpzip4 100 μM vs. 20 μM) | σobs/σcalc (reduced apparent molecular weight, observed/calculated) [3] | Melting temperature higher than that of wt gb1 peptide ([1]; depending on the method used to estimate the folded population of gb1) | Peptide concentration up to which monomeric [3]
1 | GEWTWDDATKTWTVTE (GEWTWDDATKTWTVTE-NH2) [trpzip6] | 236 ± 17 cal mol^−1 K^−1 | 44.6 ± 0.48 °C | 0.49 kcal/mol | 32.4 cal mol^−1 K^−1 | 10.29 ± 0.3 kcal/mol |  |  |  |  |  |  |  |  | 
2 | GEWVWDDATKTWVWTE (GEWVWDDATKTWVWTE-NH2) [trpzip9] | 402 ± 2 cal mol^−1 K^−1 | 92.0 ± 0.0 °C |  | 73.1 cal mol^−1 K^−1 | 26.69 ± 0.08 kcal/mol |  |  |  |  |  |  |  |  | 
3 | GEWHWDDATKTWVWTE (GEWHWDDATKTWVWTE-NH2) [trpzip7] | 418 ± 4 cal mol^−1 K^−1 | 80.2 ± 0.1 °C |  | 70.8 cal mol^−1 K^−1 | 25.03 ± 0.1 kcal/mol |  |  |  |  |  |  |  |  | 
4 | GEWVWDDATKTWHWTE (GEWVWDDATKTWHWTE-NH2) [trpzip8] | 440 ± 4 cal mol^−1 K^−1 | 79.1 ± 0.1 °C |  | 73.8 cal mol^−1 K^−1 | 25.98 ± 0.11 kcal/mol |  |  |  |  |  |  |  |  | 
5 | GEWTYDDATKTFTWTE (GEWTYDDATKTFTWTE-NH2) [trpzip5] | 325 ± 10 cal mol^−1 K^−1 | 42.7 ± 0.2 °C | 0.57 kcal/mol | 42.2 cal mol^−1 K^−1 | 13.32 ± 0.14 kcal/mol |  |  |  |  |  |  |  |  | 
6 | GEWTYDDATKTFTVTE (Streptococcus; Streptococcus Full The 41-56 residue fragment of the protein G B1 domain) [gb1, reference compound] |  |  |  |  |  | ~200 cal mol^−1 K^−1 | ~-0.6 kcal/mol | ~40% | about 50% |  |  |  |  | 
7 | SWTWEGNKWTWK (SWTWEGNKWTWK-NH2) [trpzip1] | 231 ± 4 cal mol^−1 K^−1 | 49.9 ± 0.3 °C |  | 33.4 cal mol^−1 K^−1 | 10.79 ± 0.12 kcal/mol |  |  |  |  | 50 °C | does not shift with peptide concentration | 1.02 ± 0.04 |  | 
8 | GEWTWDDATKTWTWTE (GEWTWDDATKTWTWTE-NH2) [trpzip4] | 380 ± 4 cal mol^−1 K^−1 | 70.0 ± 0.1 °C | 1.69 kcal/mol | 63.7 cal mol^−1 K^−1 | 21.86 ± 0.06 kcal/mol |  |  |  |  |  |  |  | at least 40 K | 
9 | SWTWENGKWTWK (SWTWENGKWTWK-NH2) [trpzip2] | 281 ± 2 cal mol^−1 K^−1 | 71.9 ± 0.1 °C |  | 48.6 cal mol^−1 K^−1 | 16.77 ± 0.06 kcal/mol |  |  |  |  |  |  | 1.01 ± 0.04 |  | at least 200 μM
10 | SWTWEpNKWTWK (SWTWE[dP]NKWTWK-NH2; N-terminus assumed; SMILES C[C@@H](O)[C@H](NC(=O)[C@H](Cc1c[nH]c2ccccc12)NC(=O)[C@H](CCCCN)NC(=O)[C@H](CC(N)=O)NC(=O)[C@H]1CCCN1C(=O)[C@H](CCC(=O)O)NC(=O)[C@H](Cc1c[nH]c2ccccc12)NC(=O)[C@@H](NC(=O)[C@H](Cc1c[nH]c2ccccc12)NC(=O)[C@@H](N)CO)[C@@H](C)O)C(=O)N[C@@H](Cc1c[nH]c2ccccc12)C(=O)N[C@@H](CCCCN)C(N)=O) [trpzip3] | 195 ± 2 cal mol^−1 K^−1 | 78.7 ± 0.2 °C |  | 37.0 cal mol^−1 K^−1 | 13.02 ± 0.07 kcal/mol |  |  |  |  |  |  | 1.00 ± 0.04 |  | 

Source: US7229777B2, “Hairpin peptides with a novel structural motif and methods relating thereto” (Genentech, Inc., priority 2001, dated 2007)
